According to paper PMC4158905:
Values belong to the substance of their own block, whether it stands above or below them.

What was measured:
[1] = biological target: dynein heavy chain (DYNC1H1) (human) (UniProt Q14204); assay: SEC-MALS; purified recombinant dynein complex; single peak of approximately 1.40 MDa against 1.42 MDa expected for a dimeric complex of all six chains
[2] = biological target: recombinant human cytoplasmic dynein 1 complex (human) (UniProt Q14204)
[3] = biological target: recombinant human cytoplasmic dynein 1 complex (human) (UniProt Q14204); assay: single-molecule two-colour co-localisation (TIRF microscopy); roughly equimolar TMR–dynein and Alexa647–dynein mixed, puncta on microtubules scored for both dyes in kymographs, 2.5 mM ATP; done without and with dynactin and BICD2N

- stoichiometry N [1]: 2
Substance: dynein heavy chain (DYNC1H1), Q14204 1-4646

- proportion of TMR–dynein complexes with unidirectional minus end-directed movement on microtubules, with dynactin and BICD2N at 20 BICD2N dimers: 1 dynein complex: 2 dynactin complexes [2]: 23%
Substance: native dynactin complex from pig brains (from UniProt A0A287B8J2 1-1281; A0A5G2QD80 1-405)

- percent of dynein puncta that contained both dyes [3]: 6%
Substance: recombinant human cytoplasmic dynein 1 complex (from UniProt Q14204 1-4646; O43237-1 1-492; P63172 1-113; Q9NP97-1 1-96; P63167 1-89)
